Target: the molecule itself
Assay: SEC-MALS

B1: VopL fragment 130-484 (3W-VCD) (domain or fragment, Vibrio parahaemolyticus, UniProt Q87GE5 130-484, looked up)
chain: SVNEDHSKLMEQIRQGVKLKSATKSLSADKSSADAHSKLMEELLTGGRKLKKVATSDIPAPPPLPSASTSKSPDSRNALLSEIAGFSKDRLRKTGSLETLNSSQSKDKESFEPTTHERLLSEDLFKQSPKLSEQELDELANNLADYLFQAADIDWHQVISEKTRGLTTEEMAKSEHRYVQAFCREILKYPDCYKSADVASPESPKSGGGSVIDVALKRLQTGRERLFTTTDEKGNRELKKGDAILESAINAARMAISTEEKNTILSNNVKSATFEVFCELPCMDGFAEQNGKTAFYALRAGFYSAFKNTDTAKQDITKFMKDNLQAGFSGYSYQGLTNRVAQLEAQLAALSAKLS
stoichiometry N: 2

Reference: paper PMC3173040 (Nature structural & molecular biology, 2011)
